Laboratory results taken from patent US20070117966A1 (UNIVERSITY OF ROCHESTER, published 2007).
Where two headings read alike, the source gives them in different places. No end group written: not given here.

B1: GRGDSPK peptide (peptide)
peptide: GRGDSPK
B2: echistatin (ligand)
chain: QCESGPCCRNCKFLKEGTICKRARGDDMDDYCNGKTCDCPRNPHKGPAT
modifications: ends and bridges not checked; cysteine pairing not given here

What was measured:
purified αvβ3 integrin [1] = molecular target: T1, purified αvβ3 integrin (human, UniProt P06756 31-1048; P05106 27-788, limits assumed); assay: competition ELISA on αvβ3 coated wells; competitor: biotinylated FNfn10-3JCLI4 at 800 pM; no inhibition at the highest concentration
T1 construct: Bought purified integrin, coated on plates at 5 µg/ml; also called immobilized human αvβ3 integrin; CD51/CD61

purified αvβ3 integrin [2] = molecular target: T1, purified αvβ3 integrin
[3] = molecular target: αvβ3 integrin on K562-αvβ3 cells (human, UniProt P06756 31-1048; P05106 27-788); assay: cell-based or functional assay
[4] = molecular target: αIIbβ3 integrin on K562-αIIbβ3 cells (UniProt P08514 32-1039; P05106 27-788); assay: cell-based or functional assay

T1 sequence (P06756 31-1048 limits assumed, form in doubt, chain 1 of 2): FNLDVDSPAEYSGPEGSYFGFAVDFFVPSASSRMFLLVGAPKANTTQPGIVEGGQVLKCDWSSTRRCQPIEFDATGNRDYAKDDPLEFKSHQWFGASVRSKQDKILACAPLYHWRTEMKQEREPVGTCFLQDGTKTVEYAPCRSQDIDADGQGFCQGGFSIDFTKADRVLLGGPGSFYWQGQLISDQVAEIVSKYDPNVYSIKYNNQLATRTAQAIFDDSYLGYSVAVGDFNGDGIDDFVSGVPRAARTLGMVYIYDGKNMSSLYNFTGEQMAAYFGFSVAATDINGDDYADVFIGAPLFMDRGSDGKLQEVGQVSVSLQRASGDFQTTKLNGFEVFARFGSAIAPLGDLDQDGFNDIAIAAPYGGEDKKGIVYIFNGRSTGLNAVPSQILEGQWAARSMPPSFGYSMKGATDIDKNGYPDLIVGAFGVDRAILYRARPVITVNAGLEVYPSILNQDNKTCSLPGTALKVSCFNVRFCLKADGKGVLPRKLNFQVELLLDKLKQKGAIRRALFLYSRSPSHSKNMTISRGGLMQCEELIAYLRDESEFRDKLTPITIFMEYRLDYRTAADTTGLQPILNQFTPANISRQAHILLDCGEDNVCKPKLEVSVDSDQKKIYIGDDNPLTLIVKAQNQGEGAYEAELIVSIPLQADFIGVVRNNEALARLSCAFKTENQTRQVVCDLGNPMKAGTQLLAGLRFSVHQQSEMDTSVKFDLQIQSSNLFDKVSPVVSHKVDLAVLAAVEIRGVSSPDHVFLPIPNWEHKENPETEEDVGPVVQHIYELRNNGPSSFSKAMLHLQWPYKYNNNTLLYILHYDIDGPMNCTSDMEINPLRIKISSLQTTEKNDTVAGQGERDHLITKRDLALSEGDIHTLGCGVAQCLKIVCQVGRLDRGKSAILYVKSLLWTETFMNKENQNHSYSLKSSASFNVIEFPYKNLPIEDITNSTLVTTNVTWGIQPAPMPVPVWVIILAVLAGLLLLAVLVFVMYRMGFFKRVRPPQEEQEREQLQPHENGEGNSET
T1 sequence (P05106 27-788 limits assumed, form in doubt, chain 2 of 2): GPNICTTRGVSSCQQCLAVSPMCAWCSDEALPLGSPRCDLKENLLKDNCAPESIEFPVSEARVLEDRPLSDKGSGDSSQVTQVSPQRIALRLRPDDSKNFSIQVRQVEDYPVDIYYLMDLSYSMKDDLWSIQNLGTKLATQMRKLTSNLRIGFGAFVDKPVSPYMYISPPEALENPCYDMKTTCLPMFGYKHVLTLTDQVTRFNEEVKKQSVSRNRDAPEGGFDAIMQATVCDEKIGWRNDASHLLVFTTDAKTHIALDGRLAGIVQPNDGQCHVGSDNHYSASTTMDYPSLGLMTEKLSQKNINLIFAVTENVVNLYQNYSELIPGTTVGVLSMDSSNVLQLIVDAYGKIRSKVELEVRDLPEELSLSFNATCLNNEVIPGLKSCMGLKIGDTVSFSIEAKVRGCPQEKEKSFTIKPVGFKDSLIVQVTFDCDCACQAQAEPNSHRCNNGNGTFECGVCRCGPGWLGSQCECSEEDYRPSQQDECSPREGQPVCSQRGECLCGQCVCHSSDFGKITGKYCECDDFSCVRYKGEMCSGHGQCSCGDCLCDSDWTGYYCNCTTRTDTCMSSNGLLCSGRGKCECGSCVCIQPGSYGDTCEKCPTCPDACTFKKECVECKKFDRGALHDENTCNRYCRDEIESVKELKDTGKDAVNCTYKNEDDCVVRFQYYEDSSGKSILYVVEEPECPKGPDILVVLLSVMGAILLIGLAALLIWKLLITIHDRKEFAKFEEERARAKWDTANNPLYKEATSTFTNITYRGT
Chain of αvβ3 integrin on K562-αvβ3 cells (P06756 31-1048, chain 1 of 2): as the sequence (P06756 31-1048 limits assumed, form in doubt, chain 1 of 2) above
Chain of αvβ3 integrin on K562-αvβ3 cells (P05106 27-788, chain 2 of 2): as the sequence (P05106 27-788 limits assumed, form in doubt, chain 2 of 2) above

Binder	IC50 (purified αvβ3 integrin [1]) [nM]	IC50 (purified αvβ3 integrin [2]) [nM]	inhibition of adhesion of K562-αvβ3 cells to vitronectin, IC50 [3] [nM]	inhibition of adhesion of K562-αIIbβ3 cells to fibronectin, IC50 [4] [nM]
B1	> 80			
B2		0.93	5.9	10.2
